Results on one substance are retold here after PMC10033635.

This test deals with African cichlid nackednavirus capsid protein (African cichlid nackednavirus (ACNDV)). The test can be described thus: cryo-EM structure; capsids assembled in E. coli and purified; TRIS buffer (50 mM TRIS, 50 mM NaCl, 5 mM EDTA, 5 mM DTT), pH 7.5; icosahedral symmetry imposed.

In turn, “African cichlid nackednavirus capsid protein (natural protein)” came in with a stoichiometry N (protein dimers) of 90.
